From publication PMC11273545
Values joined by “and” are separate entries in the source; they are usually repeats but may differ in a detail not shown here. Equal entries are not always repeated.

Tests used:
[1] = molecular target: multimeric recombinant RBD protein (SARS-CoV-2 S protein residues 331-589 linked to the trimerization region of bacteriophage T4 and six histidines) (SARS-CoV-2 (Wuhan strain) | bacteriophage T4) (UniProt P0DTC2); test: cross-linking
[2] = molecular target: multimeric recombinant RBD protein (SARS-CoV-2 S protein residues 331-589 linked to the trimerization region of bacteriophage T4 and six histidines) (SARS-CoV-2 (Wuhan strain) | bacteriophage T4) (UniProt P0DTC2); test: SEC; Superdex 200 column (30 x 1 cm) in TBS, 0.4 mL/min; calibrated with BSA (66 and 132 kDa), carbonic anhydrase (30 kDa) and beta-amylase (200 kDa); 135 kDa fractions pooled and re-applied

Question: With “multimeric recombinant RBD protein (SARS-CoV-2 S protein residues 331-589 linked to the trimerization region of bacteriophage T4 and six histidines) (from UniProt P0DTC2 331-589)” as the substance, how does the stoichiometry N [1] read?
Answer: The stoichiometry N was 3 and 6.

Question: What about the stoichiometry N [2] of the same substance?
Answer: Its stoichiometry N is 3.
